These results are taken from US20180011102.

Series [1] deals with SUMO-PDHK1 (wild type), bacterially purified, Q15118.
Series [2] has as its target purified Beclin-1 S30A mutant, Q14457.
The target of series [3] is T1, purified CDC45 S386A, O75419.
T1 chain: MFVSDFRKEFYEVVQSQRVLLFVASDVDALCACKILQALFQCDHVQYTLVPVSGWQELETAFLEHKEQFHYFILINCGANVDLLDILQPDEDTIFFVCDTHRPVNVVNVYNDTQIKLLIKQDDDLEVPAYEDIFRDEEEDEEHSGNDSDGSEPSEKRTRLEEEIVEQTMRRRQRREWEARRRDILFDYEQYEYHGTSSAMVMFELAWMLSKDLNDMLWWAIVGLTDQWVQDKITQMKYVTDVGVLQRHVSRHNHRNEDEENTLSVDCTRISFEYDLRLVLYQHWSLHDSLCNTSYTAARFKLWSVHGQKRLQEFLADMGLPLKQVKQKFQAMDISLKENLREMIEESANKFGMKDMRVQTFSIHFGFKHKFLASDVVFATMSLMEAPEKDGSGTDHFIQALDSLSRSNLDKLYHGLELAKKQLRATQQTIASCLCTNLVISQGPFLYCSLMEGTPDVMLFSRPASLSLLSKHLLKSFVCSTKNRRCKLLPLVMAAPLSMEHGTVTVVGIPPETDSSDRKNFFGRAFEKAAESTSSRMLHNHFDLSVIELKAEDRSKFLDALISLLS

For series [4], the target named is purified PDHK1 S337A, Q15118.
Series [5] concerns the target purified PDHK1 T338A (pE-SUMO PDHK1 T338A), Q15118.
The target in series [6] is purified wild-type Beclin-1, Q14457.
Series [7] has as its target T2, purified wild-type CDC45, O75419.
T2 chain: T1 chain with A386S

Positions count from the first letter of the chain named. Names and notes keep the numbering of the source.

Sequence of SUMO-PDHK1 (wild type), bacterially purified, Q15118 (Q15118 whole entry, looked up): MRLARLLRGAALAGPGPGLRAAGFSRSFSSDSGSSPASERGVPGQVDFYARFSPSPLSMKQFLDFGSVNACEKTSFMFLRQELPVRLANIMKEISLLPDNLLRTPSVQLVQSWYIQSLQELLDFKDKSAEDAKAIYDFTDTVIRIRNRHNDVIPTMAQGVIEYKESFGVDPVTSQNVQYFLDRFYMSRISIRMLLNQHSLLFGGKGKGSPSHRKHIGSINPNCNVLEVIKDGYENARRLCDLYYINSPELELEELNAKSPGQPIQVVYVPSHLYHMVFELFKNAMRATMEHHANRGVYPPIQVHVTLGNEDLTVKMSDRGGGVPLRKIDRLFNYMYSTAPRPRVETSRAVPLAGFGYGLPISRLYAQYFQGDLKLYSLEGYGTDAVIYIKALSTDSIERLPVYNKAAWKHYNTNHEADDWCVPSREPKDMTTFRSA
Sequence of purified PDHK1 S337A, Q15118 (Q15118 whole entry S337A): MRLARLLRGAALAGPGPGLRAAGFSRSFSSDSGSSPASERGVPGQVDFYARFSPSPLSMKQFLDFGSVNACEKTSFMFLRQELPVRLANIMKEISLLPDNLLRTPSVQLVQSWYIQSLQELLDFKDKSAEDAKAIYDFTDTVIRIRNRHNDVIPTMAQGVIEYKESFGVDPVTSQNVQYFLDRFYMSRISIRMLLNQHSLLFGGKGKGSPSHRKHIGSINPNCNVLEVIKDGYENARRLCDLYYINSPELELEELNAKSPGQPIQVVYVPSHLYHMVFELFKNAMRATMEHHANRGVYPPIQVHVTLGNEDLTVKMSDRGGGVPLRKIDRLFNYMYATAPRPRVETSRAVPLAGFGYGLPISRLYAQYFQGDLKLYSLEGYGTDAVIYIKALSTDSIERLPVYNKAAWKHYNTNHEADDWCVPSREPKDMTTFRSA
Sequence of purified wild-type Beclin-1, Q14457 (Q14457 whole entry, looked up): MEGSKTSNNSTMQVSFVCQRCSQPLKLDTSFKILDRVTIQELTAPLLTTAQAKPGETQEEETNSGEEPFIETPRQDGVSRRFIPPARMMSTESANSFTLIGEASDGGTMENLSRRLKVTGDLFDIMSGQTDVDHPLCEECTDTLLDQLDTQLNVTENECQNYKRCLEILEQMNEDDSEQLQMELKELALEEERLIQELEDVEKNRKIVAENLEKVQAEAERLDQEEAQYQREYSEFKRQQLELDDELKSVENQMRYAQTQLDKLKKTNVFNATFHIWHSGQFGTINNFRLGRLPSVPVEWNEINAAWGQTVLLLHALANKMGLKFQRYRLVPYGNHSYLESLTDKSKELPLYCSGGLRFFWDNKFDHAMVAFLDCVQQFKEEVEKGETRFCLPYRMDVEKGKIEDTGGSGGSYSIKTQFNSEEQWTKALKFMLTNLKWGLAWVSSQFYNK
Sequence of purified PDHK1 T338A (pE-SUMO PDHK1 T338A), Q15118 (Q15118 whole entry T338A): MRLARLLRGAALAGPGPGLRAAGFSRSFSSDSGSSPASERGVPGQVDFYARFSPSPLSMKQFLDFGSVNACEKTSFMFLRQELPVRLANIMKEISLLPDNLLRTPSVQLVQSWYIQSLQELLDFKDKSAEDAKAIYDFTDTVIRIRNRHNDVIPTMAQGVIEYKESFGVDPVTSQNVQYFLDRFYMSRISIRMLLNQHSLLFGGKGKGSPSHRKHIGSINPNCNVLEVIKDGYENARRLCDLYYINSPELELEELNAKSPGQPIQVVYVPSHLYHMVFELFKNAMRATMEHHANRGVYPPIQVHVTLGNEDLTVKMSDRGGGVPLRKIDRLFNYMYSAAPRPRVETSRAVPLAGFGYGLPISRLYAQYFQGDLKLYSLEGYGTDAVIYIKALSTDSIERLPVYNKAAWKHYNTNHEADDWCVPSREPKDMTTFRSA
Sequence of purified Beclin-1 S30A mutant, Q14457 (Q14457 whole entry S30A): as the sequence (Q14457 whole entry, looked up) above, with S30A counted along it

B1: His-PGK1 (wild type), bacterially purified, not phosphorylated (protein)
chain: MSLSNKLTLDKLDVKGKRVVMRVDFNVPMKNNQITNNQRIKAAVPSIKFCLDNGAKSVVLMSHLGRPDGVPMPDKYSLEPVAVELKSLLGKDVLFLKDCVGPEVEKACANPAAGSVILLENLRFHVEEEGKGKDASGNKVKAEPAKIEAFRASLSKLGDVYVNDAFGTAHRAHSSMVGVNLPQKAGGFLMKKELNYFAKALESPERPFLAILGGAKVADKIQLINNMLDKVNEMIIGGGMAFTFLKVLNNMEIGTSLFDEEGAKIVKDLMSKAEKNGVKITLPVDFVTADKFDENAKTGQATVASGIPAGWMGLDCGPESSKKYAEAVTRAKQIVWNGPVGVFEWEAFARGTKALMDEVVKATSRGCITIIGGGDTATCCAKWNTEDKVSHVSTGGGASLELLEGKVLPGVDALSNI
Turning to B1, the “in vitro phosphorylation with [γ32P]-ATP, autoradiography and anti-phospho-PDHK1 T338 antibody” value is on record as “WT PGK1, but not a PGK1 T378P kinase-dead mutant, was able to phosphorylate WT PDHK1, but not PDHK1 T338A” in series [1] and “WT PGK1, but not a PGK1 T378P kinase-dead mutant, was able to phosphorylate WT PDHK1, but not PDHK1 T338A” in series [5]. Also, the “in vitro phosphorylation with [γ32P]-ATP, autoradiography and Western blot” value in series [2] is on record as “Beclin-1 S30A mutant was largely resistant to phosphorylation by PGK1”; in series [3], “Purified wild-type PGK1 but not PGK1 kinase-dead (KD) mutant phosphorylated purified wild-type CDC45, but not CDC45 S386A”; in series [6], “Purified PGK1 phosphorylated purified wild-type Beclin-1”; in series [7], “Purified wild-type PGK1 but not PGK1 kinase-dead (KD) mutant phosphorylated purified wild-type CDC45, but not CDC45 S386A”. Moreover, the “in vitro phosphorylation with [γ32P]ATP, autoradiography” value in series [4] was “mutation of the adjacent PDHK1 S337A had no effect on PGK1-mediated PDHK1 phosphorylation”.

B2: purified PGK1 T378P kinase-dead mutant (protein)
chain: B1 chain with T378P
Regarding B2, the “in vitro phosphorylation with [γ32P]-ATP, autoradiography and anti-phospho-PDHK1 T338 antibody” value in series [1] is “WT PGK1, but not a PGK1 T378P kinase-dead mutant, was able to phosphorylate WT PDHK1, but not PDHK1 T338A”. For the same protein, the “in vitro phosphorylation with [γ32P]-ATP, autoradiography and Western blot” value in series [7] is reported as “Purified wild-type PGK1 but not PGK1 kinase-dead (KD) mutant phosphorylated purified wild-type CDC45, but not CDC45 S386A”.
